The values below come from patent US11407840B2, “Antibodies to M(H)DM2/4 and their use in diagnosing and treating cancer” (NomoCan Pharmaceuticals LLC, priority 2017, dated 2022).

The subject of experiment [1] is human breast cancer MCF-7 cells. Briefly: Cell-ELISA, intact cells. As to conditions: mAb 1 μg/mL, FIGS. 3-5. The class given is binding. As to the method: Cell-ELISA Methodology: 8,000-10,000 cells/well of a 96-well microplate were grown overnight. The next day, unbound cells were washed off with sterile 1× PBS. The cells in each well were fixed with freshly prepared 4% buffered paraformaldehyde (pH 7.2) for 1 hour followed by 3 washes with 1× PBS. The wells were then blocked with 5% BSA in PBS (100 ? /well) for 2 hours at room temperature. Microplate wells were then washed 5 times with 300 ? of ice cold 1× PBS. MAbs NMC-103, NMC-204 or NMC-303 at 1 μg/mL in 1% BSA/PBS were then incubated with various cancer or normal untransformed cells for 2 hours at room temperature. Wells were then washed with 300 ? of ice-cold 1× PBS for 5 times and corresponding secondary antibody HRP-GaM F(ab′)2 diluted 1:2500 or 1:5000 in PBS with 1% BSA were added at 100 ? /well for 1 hour at room temperature followed by washing 5 times with 300 ? of ice-cold 1× PBS. TMB Substrate Solution (1-StepTM Ultra TMB-ELISA, ThermoFisher, Cat. No. 34028) was then added at 50 ? ? to each microplate well and incubated at room temperature for 30 minutes. The reaction was stopped by addition of 50 μL, of stop solution (ThermoFisher, Cat. No. SSO4) to each well and absorbance of each well was measured at OD450 nm. The absorbance value of each experimental well was corrected for the absorbance value obtained from wells treated with isotype-identical mAbs included in each experiment. The results are thus expressed as “relative binding”.

For experiment [2], the system named is Human pancreatic cancer MIAPaCa-2 cells. Briefly: In vitro growth inhibition (cell count). The class given is cell-based. The note with it: overnight. As to the method: Methodology used: Human pancreatic cancer MIAPaCa-2 cells (8,000 cells/well) were pre-incubated with mAb NMC-103, NMC-204 and anti-Cytochrome-C antibody (Santa Cruz, Cat No. sc-13156) at 1, 5 and 10 μg/mL, respectively. Cells in the presence of one of the antibodies at various concentrations were then plated in triplicate in 96-well cell culture plates overnight. The next day, each plate well was analyzed morphologically and a picture was taken from each well using EVOS FL microscope. Cell count was also performed and the number of living cells was graphed as % of control.

Experiment [3] addresses NMC-P1 peptide (SEQ ID NO:1), amino acids 1-15 of HDM2 (Homo sapiens, UniProt Q00987). Kind of experiment: Peptide-ELISA, NMC-P1 peptide. The class given is binding. The note with it: 5 μg/ml peptide dried on plate; OD 450 nm. As to the method: Peptide-ELISA Methodology: 5 μg/ml of NMC-P1, NMC-P2 or NMC-P3 peptide antigen was dried onto a 96-well ELISA plate overnight. Plates were then blocked with 5% BSA in 1× phosphate-buffered saline (PBS) (100 ? /well) for 2 hours at room temperature. Microplate wells were then washed 5 times with 300 ? of ice cold 1× PBS. Appropriate dilutions of monoclonal antibodies NMC-103, NMC-204 or NMC-303 in 1% bovine serum albumin (BSA) in PBS solution were then incubated with their corresponding peptides (NMC-P1, NMC-P2 or NMC-P3, respectively) at room temperature. After 2 hours, wells were washed 5 times with 300 ? ? ice-cold PBS/well and 100 ? secondary antibody (HRP-labeled Goat anti-Mouse F(ab′)2 H&L cross-adsorbed secondary antibody (HRP-GaM F(ab′)2), ThermoFisher, Cat. No. A24524) diluted 1:2500 to 1:5000 in PBS-1% BSA solution were added and the incubation continued at room temperature. After 1 hour, the wells were washed again 5 times with 200 ? of ice-cold PBS and 50 μiL of the TMB Substrate Solution (1-StepTM Ultra TMB-ELISA, ThermoFisher, Cat. No. 34028) were added to each well and color was allowed to develop for 30 minutes at room temperature. The reaction was stopped by addition of 50 μ ? ? of stop solution (ThermoFisher, Cat. No. SSO4) to each well and absorbance of each well was read immediately for optical density (OD) at 450 nm.

Experiment [4] deals with mouse Lewis Lung LL/2 cancer cells. Briefly: Flow cytometry, EDTA versus trypsin, intact versus permeabilized cells. The note with it: antibody 5 μg/ml, FIG. 11. The format is binding. As to the method: Flow Cytometry Methodology: Cells that had been allowed to grow to about 80% confluency in 25 cm^2 tissue culture flasks were released with either EDTA (10 mmols; pH7.2; 5 min, 37° C.) or Trypsin (Gibco TrypLE Express), fixed with freshly made 4% buffered (pH 7.4) paraformaldehyde for 1 h at room temperature, washed several times with a large volume of ice-cold PBS, and blocked for 30 minutes at room temperature with 5% human serum albumin in PBS (intact, non-permeabilized cells). After establishing viability, the cell number was adjusted to 10^6 cells/ml and kept in ice-cold PBS until staining. Another set of the same cells was released with either EDTA or Trypsin and fixed with 4% buffered paraformaldehyde as above, then washed and blocked with 5% human serum albumin in PBS, and was treated separately with Triton X-100 (0.1% in PBS) (International Biotechnologies Inc. 07100) for 5 minutes at room temperature for membrane permeabilization. After washing off the Triton X-100 solution with PBS the cells were adjusted to 10^6 cells/ml and stored in ice-cold PBS. Cells (10^6/ml) from each preparation were then incubated either with 5 μg/ml of mAb to Na+/K+ ATPase ? -1 (Abeam, Cat. No. ab2826), 5 μg/ml of mAb NMC-103, or 5 μg/ml of mAb NMC-204 for 90 min at room temperature. Following primary antibody incubation, cells were washed 3 times with ice-cold PBS followed by incubation with rabbit anti-mouse PE-Cy5 labeled secondary antibody (PE-Cy5-RaM IgG (H&L); Invitrogen, Cat. No. M35018) at room temperature. Sixty minutes later the cells were washed 3 times with PBS and subjected to flow cytometry analysis (BD Canto Flow Cytometry). Controls to establish background fluorescence included the analysis of samples of unstained cells as well as cells that had been processed with secondary antibody under the same conditions as used in the experimental samples.
To further validate that the epitopes of the plasma membrane M(H)DM2 are in fact extracellularly accessible sequences on cancer cells, binding of mAbs NMC-103, NMC-204 and NMC-303 was performed on mouse Lewis Lung LL/2 cancer cells under treatment conditions of EDTA versus trypsin. Both of these conditions were also tested on intact versus permeabilized cells. FIG. 11 panels A, B and C present flow cytometry data on % cells stained with mAbs NMC-103, NMC-204 and anti-Na+/K+ ATPase ? -1, respectively. Each antibody was reacted with cells from four treatment conditions: EDTA-treated intact cells, EDTA-treated permeabilized cells, trypsin-treated intact cells, trypsin-treated permeabilized cells. […] However, when trypsin-treaded cells were permeabilized, the above reduction in binding was compensated by reactivity of the antibodies to intracellular MDM2 or Na+/K+ ATPase a-1.

The mark [5] stands for this setting: EDTA-treated permeabilized cells (Triton X-100).

Entries after “also recorded” stand apart in the source; their conditions may differ.

B1: NMC-204: mouse monoclonal antibody, IgG3 isotype, binds NMC-P2 (SEQ ID NO:2); VH SEQ ID NO:38, VL SEQ ID NO:39 (antibody, V domains shown)
VH: EVQLQESGSVLVRPGASVKLSCKASGDTLSGSWMHWAMQRPGQGLEWIGEIHLNRGTTNYNEKFKGKATVTVDTSSSTAYVDLSSLTSEDSAVYYCARSPGFAYWGQGTLVTVSA
VL: GIVMTQAAPSVPVTPGESVSISCRSSKSLLHSNGNSYLYWFLQRPGQSPQLLIYRMSNLASGVPDRFSGSGSGTAFTLRITRVEAEDVGVYYCMQHLEYPFTFGSGTKLEIK
modifications: mAb NMC-204 Heavy Chain Variable Region; mAb NMC-204 Light Chain Variable Region
For the molecule B1, the “relative binding (reactivity) to intact cells, cell-ELISA” value in experiment [1] is given as “reactivity”. Also, the “growth inhibitory effect (FIG. 12D; number of living cells graphed as % of control)” value in experiment [2] (antibody 1 μg/mL) amounted to 65%; in experiment [2] (antibody 5 μg/mL) it was 73%; in experiment [2] (antibody 10 μg/mL) it was 77%. The “binding to NMC-P1 peptide (peptide-ELISA)” value in experiment [3] was “did not bind”. Moreover, the “% cells stained (flow cytometry)” value is 51.2% in experiment [4] (EDTA-treated intact cells), 52.85% in experiment [4] (setting [5]) and 27% in experiment [4] (trypsin-treated intact cells).

B2: NMC-103: mouse monoclonal antibody, IgG1 isotype, binds NMC-P1 (SEQ ID NO:1); VH SEQ ID NO:36, VL SEQ ID NO:37 (antibody, V domains shown)
VH: EVQLQESGGGLVQPGGSLRLSCTTSGFTFTHYYMSWVRQPPGKALEWLGFIRNKAKGYTAEYSASVKGRFTISRDNSQSILYLQMNTLRPEDSATYYCARDIGDNWGQGTLVTVSS
VL: DIVMTQAAFSNPVTLGTSASISCRSSKNLLHSNGITYLYWYLQRPGQSPQLLISRVSNLASGVPNRFSGSESGTDFTLRISRVEAEDVGVYFCAQLLELPYTFGGGTKLEIK
modifications: mAb NMC-103 Heavy Chain Variable Region; mAb NMC-103 Light Chain Variable Region
In the case of B2, the “relative binding (reactivity) to intact cells, cell-ELISA” value in experiment [1] is “reactivity”. In addition, the “growth inhibitory effect (FIG. 12D; number of living cells graphed as % of control)” value in experiment [2] (antibody 1 μg/mL) was found to be 65%; in experiment [2] (antibody 5 μg/mL) it was 84%; in experiment [2] (antibody 10 μg/mL) it was 91%. For the same molecule, the “binding to NMC-P1 peptide (peptide-ELISA)” value in experiment [3] is “bound; also recorded: strong binding”. The figures for the “% cells stained (flow cytometry)” value in experiment [4] (EDTA-treated intact cells), in experiment [4] (setting [5]) and in experiment [4] (trypsin-treated intact cells) were 70.4%, 75.8% and 36.8%, respectively.
